Series [1] has as its target T1, MadR (Mycobacterium tuberculosis H37Rv) (UniProt P9WMD9).
T1 sequence: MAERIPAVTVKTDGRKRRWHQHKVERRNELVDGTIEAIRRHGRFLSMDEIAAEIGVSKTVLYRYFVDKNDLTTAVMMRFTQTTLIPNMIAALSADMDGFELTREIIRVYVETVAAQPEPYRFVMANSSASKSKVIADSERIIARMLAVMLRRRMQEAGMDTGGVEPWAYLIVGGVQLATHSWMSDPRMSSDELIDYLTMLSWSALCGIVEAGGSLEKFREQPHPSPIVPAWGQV
Nature of the series: EMSA.

Series [2] has as its target T2, MadR (Mycobacterium tuberculosis H37Rv, UniProt P9WMD9 1-234).
T2 sequence: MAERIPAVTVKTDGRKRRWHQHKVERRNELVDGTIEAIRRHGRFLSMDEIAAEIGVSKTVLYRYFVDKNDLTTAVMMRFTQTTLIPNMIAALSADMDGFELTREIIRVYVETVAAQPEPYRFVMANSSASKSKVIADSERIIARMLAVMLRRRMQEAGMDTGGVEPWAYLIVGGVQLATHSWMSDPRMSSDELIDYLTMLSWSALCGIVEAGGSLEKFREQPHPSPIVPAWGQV
Nature of the series: EMSA. The conditions noted are these: protein: recombinant; tags: His-tag implied (pET28a, cobalt IMAC); chain copies: 2; blunt.

On to “GGGCCGAACATACTCACCCGGATCGGAGGGCCGAGGACACGGTCGAACGAGGGGCATGACCCGGTGCGGGGCTTCTTGCACTCGGCATAGGCGAGTGCTAAGAATAACGTTGGCACTCGCGACCGGTGAGTGCTAGGTCGGGACGGTGAGGCCAGGCCCGTCGTCGCAGCGAGTGGCAGCGAGGACAACTTGAGCCGTCCGTCGCGGGCACTGCGCCCGGCCAGCGTAAGTAGCGGGGTTGCCGTCACCCGGTGACCCCCGTTTCATCCCCGATCCGGAGGAATCACTTCGCA (double strand) [hsp60 promoter]”, for which the binding entry in series [1] was “no binding”.

B1: desA2 promoter -36/+14 (dsDNA)
DNA 1: TTCACGAAATCTGTGTATGCGAGTTACAGTTACCGCATGGCACAGAAACC
DNA 2: GGTTTCTGTGCCATGCGGTAACTGTAACTCGCATACACAGATTTCGTGAA
In the case of B1, in series [2], the binding result is “binds”.

B2: desA1 promoter -19/+31 (dsDNA)
DNA 1: CAGTTATCTGTGTCTAATGGTTGCAGTCAATATATCTGTGTCTCTCGGTA
DNA 2: TACCGAGAGACACAGATATATTGACTGCAACCATTAGACACAGATAACTG
With B2, the binding result in series [2] is given as “binds”.

For the origin of these results see article PMC8872791, “MadR mediates acyl CoA-dependent regulation of mycolic acid desaturation in mycobacteria” (Proceedings of the National Academy of Sciences of the …, 2022).
